This note sets out measurements from the DeepSol protein solubility set.

The series is described as follows: soluble on expression in E. coli; label from the status in PepcDB or PDB records.
Regarding “MAHHHHHHMGTLEAQTQGPGSMSVRVAINGFGRIGRNILRAIIESGRQDIEVVALNDLGSVETNAHLLRYDSVHGCFPGTVQVVGDAIDIGSSLIKVFAERDPAQLPWKALDIDIALECTGIFTARDKASAHLDAGAKRVLVSAPSEGADLTVVYGVNHQFLSKEHHVISNASCTTNCLAPVAQVLHNTVGIEKGFMTTIHSYTGDQPVLDTMHRDLYRARAAALSMIPTSTGAAKAVGLVLPELKGLLDGVSIRVPTPNVSVVDLTFTAKRSTTIEEINTAIRTAAQGSLKGILDYTDEKLVSCDFNHNPHSAIFHNDQTKVIDGQLCRVLVWYDNEWGFSNRMCDTAVAFAKTI”, the “soluble on expression in E. coli” value is given as “soluble”.
To “MAHHHHHHMGTLEAQTQGPGSMTGPLAAARSVAATKSMTAPTVDERPDIKKGLAGVVVDTTAISKVVPQTNSLTYRGYPVQDLAARCSFEQVAFLLWRGELPTDAELALFSQRERASRRVDRSMLSLLAKLPDNCHPMDVVRTAISYLGAEDPDEDDAAANRAKAMRMMAVLPTIVAIDMRRRRGLPPIAPHSGLGYAQNFLHMCFGEVPETAVVSAFEQSMILYAEHGFNASTFAARVVTSTQSDIYSAVTGAIGALKGRLHGGANEAVMHDMIEIGDPANAREWLRAKLARKEKIMGFGHRVYRHGDSRVPTMKRALERVGTVRDGQRWLDIYQVLAAEMASATGILPNLDFPTGPAYYLMGFDIASFTPIFVMSRITGWTAHIMEQATANALIRPLSAYCGHEQRVLPGTF” belongs “soluble”.
Consider “MAHHHHHHMGTLEAQTQGPGSMVTANSTVKVGNVTFSNSAPLALIAGPCQMETRDHAFEMAGRLKEMTDKLGIGLVYKSSFDKANRTSLKAARGIGLEKALEVFSDLKKEYGFPVLTDIHTEEQCAAVAPVVDVLQIPAFLCRQTDLLIAAARTGRVVNVKKGQFLAPWDMKNVLAKITESGNPNVLATERGVSFGYNTLVSDMRALPIMAGLGAPVIFDATHSVQQPGGQGGSTGGQREFVETLARAAVAVGVAGFFIETHEDPDNAPSDGPNMVPIDKMPALLEKLMAFDRIAKAL”, for which the “soluble on expression in E. coli” value was “soluble”.
For “MAHHHHHHMGVGFQSKKLQNFCHSGAGEMCALENCIPRWGSFPCNAPGLTPVYELSSFENVELPLIFQKSNIGDLLASTSDSVGQLNGFQARHSNTEGIKSQVSYTSVALSTTNRENLFGWVDCAALPLCSSSTAGASILLVTLLTRESRGKSCMCILDDLVCQLSNGPFNWGCGGDCHDLISISLPSEPRNHAACPIILPIAKLSRKEIWLREAAPKMDVETIIYEGDNQQHLVDDVANGTNAGSCAVMEAGCRPETALGPENVKYGDNESVTQCEVTVDITPSTEPSARCLHFSECTTPVSSNRSFMEPIPLSNMESKALRCRKFDGTSYEVLRRRAHSDALSLILKKYSEHF” the value was “not soluble”.
Consider “MAHHHHHHMHFSPLVFHIHFTRSFSLFFRFCMQLATREGWWEEGGEKEGVFEGAIEEKTVMSFFFDEDSGDEPATKRHCTEQQQRAQGRPHGGFFNGNGEKDEDEDERPVLARAGSDRVGLRLLQGMQKPTSSSSSVLLSGKEKMRVVEAYVPLSVGGFMESSAETAVDNLSQIKPGNVMCLRSPASSASQASTGMNFVRETDLTEEERRYGKRLSSNMTQELFEVGRVDRDTGMLEAIFLDGTRRNLKAYAVRPAGFVEKELFRQWKRDPNSRPVRTVYAAPQDANASPSLSSTTQTTRTTAVDSAKRKNNTAAVELMPWWVSPQLIVRVVEKSAGDLFGKKFVVKSLSRKEGKIRLAPWQRSAGNGESAENSPVDIVGCEALETIVPKVGEQGIIVLGNMRGELVKVMERHRDVNGELASLKVCSTLTGNEFTVGPHEVCQLACPRP”, for which the “soluble on expression in E. coli” value is reported as “not soluble”.
As to “MAHHHHHHMHSSPFPSLFLVSRNGAHASRFSVVQLEYITSTCFSLLQVVTYRVATCSHGTMTALADEVREKYSLSLSSDYVERCVQAKASLTSLELYQKSLWENLRDICGTSLLPYGIGAQVSATLPNAVVMQINASRDATQPLRPCADASDEEAFLNAAFQRNSSKRLLRLQLTDGNVEISALELSTLCVFQGIPTPGEKLLIHKGAEVRNGCIILSEGSVSVLGGEVRQLKQDFLANRRRLEVGYQTSNGLDGAPRFAPLQVGHHYRSSVANSGAPVDIGHQGGASPYHANERGGRRSNYSRNGGGGGRAQQAGDNYEGRVSAGDHGRGGRGGRGGRGWDSSYGGDGWRGHGRRGGGYVRRGDGGRVDSRGCVGGASYHVDTANFQPPAEKFPEINEANFPRLV”, the “soluble on expression in E. coli” value is recorded as “not soluble”.
For “MAHHHHHHMIAATQVPGLNEISRQAASGSPFPQVLPPRYPANKVSTAGLQSSNHGAAQLVHDVNNVAAEIHHPLITAADYSDRRQLLSHITVLSGQLQRAQLLLRNTPSCVVSDADIARFDPLIAQAEVERLDSALAQLSLLHEMERARSGSLEAEQQQLREERNQLVARVDTLESRSVALETENVQLRSALEVAQQELQVLRVGESALGNKLHAIEQLQRDGGRFDGVNVVIAPPRAVCSTAAKELQLQENIQRLSLLLDMMMDPMYIAFDAGVVWITETEHHRAGGQVCGAALSNAPHDSEELTTTVGGNSPLGNASDATLPQDVVANPPHVVASEVDISLLQQQQQELCRQLDAVRESCRVAERNQERLQDLLLEEQRRTEAMAQEHCKQLQCVHDRVVHERRQVVESLVAEVEEKMRNAFRDGRLYQKQLDERLIHRRSSSTFQSRSGHSSARSTPFASRHKAFGGNGTCKGDGDANSSRSARSPILGG” the value was “not soluble”; for “MAHHHHHHMIARDPPQEGRLPDPSRLPYDDERFAEMLLEMEVNGVIDETWQDAKKARMEDVKEIANILSSLKVRDLCCVDVSEKTSNFDYMMFGTCEGARHIHLAAWAVQDADKVHRISKIKRQQTDELWEVVPVGRIVVNLMVESFREEMTLERKWAVTRSMDPLAAANAPISEGRQVKAHGLWTLTLNLQDLEDFEVDYCKDILMRQM”, “soluble”; for “MAHHHHHHMILHGALSQERDRLLSSYLKSPITLSFPPPLPLLALPSPPSFFVYKKNVFFFRLGMGDARSASSKASSPSCVLAATPRDFGRSAEPGDSPRPPIIAVLYRPGQAKRERQPARGGRGGGQRRLVSYFLPALAAHVRHGKQWTTYPLSFLYPYRPSHSLSTPPHTPSIITDPRITRRKLASVLSLFYLQSVTMMASGGDEQLDALVDSILQSSDHLGSIDQITQRLPSPQQQQLSNPAFTSSTQQREHTSSDSHDTGVRAHMHAVSPGGSSSSVGNFVVAVPAAHHASASTSRATATHLDTEDGEKGEEEDDLSALVERILAGPGVRGRPSTSSASSPRFSQVPPPHIGNSGATSTSGLKGATRVKGGSSSLSRTFGAGPASPNARMQAVVRRLTLWYERKEAKRVQAVYEALEREQLDCTFEPRINRLGVEVGGSVVVDEDDRPLHRRHYSADEYPRRSSASSKARGSSGSRAVSHTNTISMSSSSSRVTPHVCEYIPSLQPPSQPITGADAFVERLRRAQDERDTVREAEEAKRLHYYDPTTFRRDLTVPVPFEFVETRPRRLAAAMTAAAGGSPSRGPGDIVGVTRTSIPPFSARAAALAACGDAGATPPRPAEDGFRDVNEDKRLTPENTFLSLAPHIRETLLFDRQMELQLRRATDSVRRVTRGE”, “not soluble”.
To “MAHHHHHHMKEGDFEGAEERFIKAIEEIEKFPEGKVDPKLVEQMRELLEDAREMKDGRFKEIQEFIQEQFAVNETERLPTAHEFYGDVDEQQHPFVSRLPNDGECSALSMPQSNTNPVQWSEHSNSMSLSLFPSQVNGRSSEASNSQPVQHVVARRKPKPLQKQKALEVESSGNVSTGSDMKRFRAES” belongs “soluble”.
For “MAHHHHHHMKGVSIRQLDAIIILDSDGKRIAVKYYNDQFLPKGESKLIHKSPSRDSISYPFEDTYNNLRTVEDQKMFENDITEKARKLGGNSSETEVLILSKFTVLYLLINDVSIYIVGDEGDNEIILHEIMQTVQQCLESVTNNQIGRKQLLEKLDSIYLILDEIADSGIIMETNPNVIINRLYMHESDLQEHTPLNQAISSAKENIIRSLLSGT” the value was “soluble”; for “MAHHHHHHMKIHIFLIATIYVLFSEKLIKWTTASTTQGGDTDTHPGTPPGEGSDVSQGAGQDASQGAGQDANPDPTLPKPPSPPADDTKDTGSQGDADSSSSKIEIPPLVKPENHKTIVSAMLKNYKGVKVTGTCGADFGLFLVPHIYVHVKSEDTEIELSSELAPPEMQTKFDKTQLKKFCVKDDTKKFDFIAYIYKDILVFKWKVYEEGLSKEQDVDEMKYLLPNLKQPITSIQVHSWTGTKESYILESKDYVLGEGMPEKCDAIATDCFLSGFTDIGKCFQCKLLMQEKNINDSCFKYVSSNQKELIKKQLKITAQDDEESSEYHLSESIKNLLKNIYKKNNDDNKKKELLHFENVNSALKSELLNYCNLLKEVNMNGVLKDHQLGNVQDVFNNLTKLLEEHKEENDNVLYHKMKNEALCLKNVNDWMKNKTGLLLPQLSYDLTYKNNNFTEFTQNKSYTSQNIVDKLYCNHEYCNRLKDHNNCISKINVEDQKNCALSWAFASKYHLETIKCMKGYEPLNASVLYVTNCLKNKNKDVCTEGSNPLVFLETIEEKGFLPTESNYPYDQSKVGDICPQLQNDWDNVFENTKVLDYNNGPFSVGTKGYIAYESEAFQKDMHSFVKLVKDEIMNKGSVIAYVKAENVLGYELNGKKVQNLCGDKTPDHVVNIVGYGNYINNKGEKKSYWIVRNSWGKYWGDDGYFKVDMYGPSTCEDNFIHTVVVFNVQVPINEKFDKKEHDIYNYYLKTSPEFYHNLYYKTFNS”, “not soluble”; for “MAHHHHHHMKKQIKWKAHKGVVLCADWSRMSGMIVTGGEDGVYKVWDPYGCSIFVAAAGEHPITSVRFAADGESFAVGSFMNVRVCDKTGWSHSYERTTEGSAMALDWMPDGTQMILGNGTGALSIAQIVDRKVSWGPYTVTLLDSRRLTVQDVVKDTVQEIELADKVIKLELGCGYLVVCTTTQCCCYPMDRLNAPVQFDLRDPVISIILGPRQFLLADCSQGLQVYSYEGRQISVLRLQVTLKPEIMTTNLLSLSPETVAMRNPADAKRILFFDVSSGKPFDAASVAHHLDIVSVHLSQSGSLHDRKIAFIDRNNDLYFGPVHTQLGFHKLSTMTTSVAWHDSHETLVAIADGHLATWYYPSTIFTDRDLLSLTKTVRDGGHTEFTRNDRITHFHHTRVLVRRGGDGALLTLPVSPYTVMIFQLVTQKNNWDGATRLARFLKDPLLWAVLTALALRAGELNVAEIGYGALSDLAKVRYIHYIKGIPTPEARQAELALFQHRPAEAERILLQAGLVYRCIDMNTRLFKWERALEIAKERKTHLDTVLGRRERYLQEVSQKEMLAPFKDLSGKVKVDWAVIEEKVKQEVIKESERPNAKPYA”, “not soluble”.
Take “MAHHHHHHMKPLAPFVCRLPSRRILRVRGTDAHDFLQGIFTNDLRELHPAGSMYGCFLYFTGRVLCDAHLYQCKQVHEGQASILVDVHERSATELLDHLTEMKMRKKVHIDDVGKELVVLAALEETSADAQRSRDSASGCDARESSVTSLSPETLEERHTECFLDPRNDALFPRPPPPSSSSPPAAVTSPSFCLRKCVVPATWAPPLSSPDSYTTLLYSRGIGEGPDVFKCNKSLPFEGNLDFLKGVSFHKGCYVGQELTHRTHVMLVTRKRTVPLHFGPANVDPPAAGIITDEGAVTKTWPVEVGEPLYSAAREKIGEVTGVCGQVGIGLFRLRYVDKATHTVPGLQLKDGTPVQTHLPDWWPRKDVKKLLQNNS”: the “soluble on expression in E. coli” value is on record as “soluble”.
For “MAHHHHHHMKPTKPLLYITGYGPFLEVTENPSATIAQSVAEQVRQSGEADVHHETLDVNLEAVSKYFNRLNESVTAHLEATHPENRVLLVNVGLHSREKEKVLRLEVRAFNELEGNPIDDELPLSTCKDSAFVKGCKLETTTALIEELNAIERNGSDHHEKPRWIISYDAGRYYCNYALYRGVKMQEALNSRVFAVFLHIVASTVVCMEEQVAQVRMLVSHLLKHMEAVE” the value was “soluble”.
